As usually defined, the stoichiometry N is a count of units in the complex or per binding partner.

We go through three molecules from article PMC6383938 (PLoS Biology, 2019).

In data set [1] the target is human copper chaperone for SOD1 domain II–III construct (human). Briefly: SEC-MALS; SEC and light scattering–derived molecular weights of hCCS truncations at micromolar concentration.
Data set [2] concerns the target human superoxide dismutase-1 as used in the SEC complexation assays (variant not stated) (human) (UniProt P00441). In words: SEC; complexation of hCCS dimer interface variants with hSOD1 followed over a time course from 8 minutes to 4 days; Agilent BioSec Advance 300 Å 4.6 × 300 mm column; heterodimer peak height plotted. Background: SEC sorts molecules by how far they enter the pores of the column.

Data set [3] deals with the molecule itself. In words: SEC; size exclusion chromatograms of hCCS alone (wild type and Ala231Gly); relative amounts of dimeric and monomeric species.

“human copper chaperone for SOD1 domain II–III construct (domain or fragment)” yielded a stoichiometry N in data set [1] of 2.

B1: human copper chaperone for SOD1 Ala231Gly (natural protein, UniProt O14618 1-274, looked up)
chain: MASDSGNQGTLCTLEFAVQMTCQSCVDAVRKSLQGVAGVQDVEVHLEDQMVLVHTTLPSQEVQALLEGTGRQAVLKGMGSGQLQNLGAAVAILGGPGTVQGVVRFLQLTPERCLIEGTIDGLEPGLHGLHVHQYGDLTNNCNSCGNHFNPDGASHGGPQDSDRHRGDLGNVRADADGRAIFRMEDEQLKVWDVIGRSLIIDEGEDDLGRGGHPLSKITGNSGERLACGIIGRSAGLFQNPKQICSCDGLTIWEERGRPIAGKGRKESAQPPAHL
notes: also called Ala231Gly hCCS; A231G hCCS; source: expressed and purified as previously described [29,35,42]
For B1, the fold slower complexation than with wild-type hCCS in data set [2] was more than 300 fold. The binding result in data set [3] is listed as “binds”.

B2: wild-type human copper chaperone for SOD1 (natural protein, UniProt O14618 1-274, looked up)
chain: MASDSGNQGTLCTLEFAVQMTCQSCVDAVRKSLQGVAGVQDVEVHLEDQMVLVHTTLPSQEVQALLEGTGRQAVLKGMGSGQLQNLGAAVAILGGPGTVQGVVRFLQLTPERCLIEGTIDGLEPGLHGLHVHQYGDLTNNCNSCGNHFNPDGASHGGPQDSDRHRGDLGNVRADADGRAIFRMEDEQLKVWDVIGRSLIIDEGEDDLGRGGHPLSKITGNSGERLACGIIARSAGLFQNPKQICSCDGLTIWEERGRPIAGKGRKESAQPPAHL
notes: human copper chaperone for SOD1 (hCCS), wild type; also called hCCS; wild-type hCCS; source: expressed and purified as previously described [29,35,42]
B2: the binding result in data set [3] is reported as “binds”.
